The text below walks through data of the Immune Epitope Database (IEDB).

Experiment [1] has as its target HLA-A*01:01. The experiment is described as follows: IEDB peptide-MHC binding, purified MHC/direct/fluorescence; filed as Kd, often an IC50 or EC50 that approximates it; ≥ and ≤ were set here for values at or beyond the usual limits of such assays.
Another experiment deals with HLA-A*02:01. The experiment is described as above.
Another experiment addresses HLA-A*03:01. The description is as above.
Experiment [2] has as its target HLA-A*11:01. Described as above.
A further experiment concerns the target HLA-A*26:03. The description is as above.
In the next experiment the target is HLA-A*31:01. Described as above.
Another experiment has as its target HLA-A*68:02. Described as above.
The target of the next experiment is HLA-A*69:01. The experiment is described as above.
Another experiment has as its target HLA-B*08:03. Described as above. The conditions noted are these: source organism: Giardia lamblia ATCC 50803.
A further experiment deals with HLA-B*15:01. Described as above.
The next experiment addresses HLA-B*15:17. Described as above.
A further experiment addresses HLA-B*18:01. Described as above.
Experiment [3] addresses HLA-B*27:05. The description is as above.
In the next experiment the target is HLA-B*40:01. Described as above.
In the next experiment the target is HLA-B*46:01. The description is as above.
The target in the next experiment is HLA-B*48:01. Described as above.
A further experiment concerns the target HLA-B*57:01. The experiment is described as above.
Another experiment concerns the target HLA-B*58:01. The experiment is described as above.
Experiment [4] deals with HLA-B*07:02. The experiment is described as follows: IEDB peptide-MHC binding, purified MHC/competitive/fluorescence; filed as Kd, often an IC50 or EC50 that approximates it; ≥ and ≤ were set here for values at or beyond the usual limits of such assays. The settings on record: source organism: Giardia lamblia ATCC 50803.
The target of a further experiment is HLA-B*08:01. The experiment is described as above.
The next experiment concerns the target HLA-C*07:02. The experiment is described as follows: IEDB peptide-MHC binding, purified MHC/direct/fluorescence; filed as Kd, often an IC50 or EC50 that approximates it; ≥ and ≤ were set here for values at or beyond the usual limits of such assays. The settings on record: source organism: Homo sapiens.
The target in experiment [5] is HLA-A*01:01. Kind of experiment: IEDB peptide-MHC binding, purified MHC/competitive/fluorescence; filed as Kd, often an IC50 or EC50 that approximates it; ≥ and ≤ were set here for values at or beyond the usual limits of such assays. The conditions noted are these: source organism: Homo sapiens.
The next experiment deals with HLA-A*29:02. The experiment is described as above. The conditions noted are these: source organism: Homo sapiens.
The next experiment concerns the target HLA-A*80:01. Described as above. The conditions noted are these: source organism: Homo sapiens.
Another experiment has as its target HLA-A*26:01. Kind of experiment: IEDB peptide-MHC binding, purified MHC/direct/fluorescence; filed as Kd, often an IC50 or EC50 that approximates it; ≥ and ≤ were set here for values at or beyond the usual limits of such assays.
In the next experiment the target is HLA-B*08:02. Described as above.
Another experiment has as its target HLA-B*51:01. Described as above. The conditions noted are these: source organism: Mycobacterium tuberculosis.
The target of the next experiment is HLA-B*15:09. The experiment is described as follows: IEDB peptide-MHC binding, purified MHC/competitive/fluorescence; filed as Kd, often an IC50 or EC50 that approximates it; ≥ and ≤ were set here for values at or beyond the usual limits of such assays. The conditions noted are these: source organism: Corynebacterium efficiens YS-314.
Experiment [6] addresses HLA-B*39:01. Described as above.
Experiment [7] addresses HLA-A*01:01. Kind of experiment: IEDB peptide-MHC binding, purified MHC/competitive/fluorescence; ≥ and ≤ were set here for values at or beyond the usual limits of such assays.
The target of experiment [8] is HLA-B*07:02. The experiment is described as follows: IEDB peptide-MHC binding, purified MHC/direct/fluorescence; filed as Kd, often an IC50 or EC50 that approximates it; ≥ and ≤ were set here for values at or beyond the usual limits of such assays. The settings on record: source organism: Bacillus anthracis.
The next experiment deals with HLA-B*15:02. The experiment is described as above. The conditions noted are these: source organism: Bacillus anthracis str. A0389.
Another experiment addresses HLA-B*35:01. The experiment is described as above. The conditions noted are these: source organism: Bacillus anthracis str. A0389.
For experiment [9], the target named is HLA-B*39:01. The description is as above. The conditions noted are these: source organism: Bacillus anthracis str. A0389.
The target in experiment [10] is HLA-A*11:01. Kind of experiment: IEDB peptide-MHC binding, purified MHC/competitive/fluorescence; filed as Kd, often an IC50 or EC50 that approximates it; ≥ and ≤ were set here for values at or beyond the usual limits of such assays. The settings on record: source organism: Bacillus anthracis str. A0389.
The target of the next experiment is HLA-A*30:01. The description is as above. The conditions noted are these: source organism: Bacillus anthracis str. A0389.
Experiment [11] addresses HLA-B*27:05. The experiment is described as follows: IEDB peptide-MHC binding, purified MHC/competitive/fluorescence; ≥ and ≤ were set here for values at or beyond the usual limits of such assays.
The next experiment deals with HLA-B*38:01. Kind of experiment: IEDB peptide-MHC binding, purified MHC/direct/fluorescence; filed as Kd, often an IC50 or EC50 that approximates it; ≥ and ≤ were set here for values at or beyond the usual limits of such assays. The conditions noted are these: source organism: Mycobacterium tuberculosis str. Haarlem.
Where [12] appears, read: source organism: Giardia lamblia ATCC 50803.
Setting [13] is: source organism: Mycobacterium tuberculosis.
[14] abbreviates: source organism: Mycobacterium tuberculosis F11.
Setting [15] is: source organism: Bacillus anthracis.
The mark [16] stands for this setting: source organism: Bacillus anthracis str. A0389.
The mark [17] stands for this setting: source organism: Mycobacterium tuberculosis variant bovis BCG str. Pasteur 1173P2.

By Kd is commonly meant a measure of binding affinity in units of concentration. Low values mean tighter binding, high ones weaker binding. For orientation: IC50 means the concentration that gives 50% inhibition.

On to EIRHRSGIQ, for which the Kd was ≥ 20 µM in the experiment with HLA-A*01:01 [1] (setting [12]); ≥ 20 µM in the experiment with HLA-A*02:01 (setting [12]); 2 µM with HLA-A*03:01 (setting [12]); 6.39 µM with HLA-A*11:01 [2] (setting [12]); ≥ 20 µM in the experiment with HLA-A*26:03 (setting [12]); ≥ 20 µM in the experiment with HLA-A*31:01 (setting [12]). For the same sequence, the Kd with HLA-A*68:02 (setting [12]), with HLA-A*69:01 (setting [12]), in the experiment with HLA-B*08:03, with HLA-B*15:01 (setting [12]), with HLA-B*15:17 (setting [12]) and in the experiment with HLA-B*18:01 (setting [12]) was ≥ 20 µM in each case. For the same sequence, the dissociation constant Kd in the experiment with HLA-B*27:05 [3] (setting [12]), with HLA-B*40:01 (setting [12]), in the experiment with HLA-B*46:01 (setting [12]), with HLA-B*48:01 (setting [12]), with HLA-B*57:01 (setting [12]) and in the experiment with HLA-B*58:01 (setting [12]) was ≥ 20 µM each time. Besides, the Kd is 0.41 µM with HLA-B*07:02 [4] and 9 µM with HLA-B*08:01 (setting [12]).

As for YYSNKAYQY, the equilibrium dissociation constant (Kd) in the experiment with HLA-C*07:02 is 0.15 µM; with HLA-A*01:01 [5], ≥ 20 µM; with HLA-A*29:02 it was ≤ 0.0001 µM; in the experiment with HLA-A*80:01, 0.373 µM.

As to MPRLSRNAA, the Kd with HLA-A*01:01 [1] (setting [13]), with HLA-A*02:01 (setting [13]), with HLA-A*03:01 (setting [13]), with HLA-A*11:01 [2] (setting [13]), with HLA-A*26:01 (setting [14]) and with HLA-A*31:01 (setting [13]) was ≥ 20 µM throughout. Also, the Kd was ≥ 20 µM with HLA-A*69:01 (setting [13]); ≥ 20 µM with HLA-B*08:02 (setting [14]); ≥ 20 µM with HLA-B*15:01 (setting [13]); ≥ 20 µM with HLA-B*15:17 (setting [13]); 8.28 µM with HLA-B*18:01 (setting [13]); ≥ 20 µM with HLA-B*27:05 [3] (setting [13]). The Kd with HLA-B*40:01 (setting [13]) is ≥ 20 µM; with HLA-B*46:01 (setting [13]) it was ≥ 20 µM; with HLA-B*48:01 (setting [13]) it was ≥ 20 µM; in the experiment with HLA-B*51:01, 0.655 µM; with HLA-B*57:01 (setting [13]) it was ≥ 20 µM; with HLA-B*58:01 (setting [13]), ≥ 20 µM. For the same sequence, the results for the Kd with HLA-B*15:09 and with HLA-B*39:01 [6] (source organism: Corynebacterium efficiens YS-314) were ≥ 20 µM and 0.25 µM, respectively.

In turn, LTDSLSSQM showed an IC50 with HLA-A*01:01 [7] (source organism: Vaccinia virus Copenhagen) of 2.54 µM.

For KLYVNGKAY, the Kd with HLA-A*01:01 [1] (setting [15]) was ≥ 20 µM; in the experiment with HLA-A*02:01 (setting [15]) it was ≥ 20 µM; in the experiment with HLA-A*03:01 (setting [15]), 0.032 µM; with HLA-A*26:01 (setting [16]), ≥ 20 µM; in the experiment with HLA-A*26:03 (setting [16]), ≥ 20 µM; with HLA-A*31:01 (setting [15]) it was ≥ 20 µM. Moreover, the Kd with HLA-A*68:02 (setting [15]) is ≥ 20 µM; with HLA-A*69:01 (setting [15]), ≥ 20 µM; with HLA-B*07:02 [8], ≥ 20 µM; with HLA-B*08:02 (setting [16]), ≥ 20 µM; in the experiment with HLA-B*15:01 (setting [15]), 0.298 µM; with HLA-B*15:02, 0.117 µM. In addition, the Kd with HLA-B*15:17 (setting [15]) was 0.0024 µM; with HLA-B*27:05 [3] (setting [15]), ≥ 20 µM; with HLA-B*35:01, 1.63 µM; with HLA-B*39:01 [9] it was ≥ 20 µM; in the experiment with HLA-B*46:01 (setting [15]), 6 µM; in the experiment with HLA-B*48:01 (setting [15]) it was ≥ 20 µM. Moreover, the Kd in the experiment with HLA-B*57:01 (setting [15]) is 0.507 µM; with HLA-B*58:01 (setting [15]) it was ≥ 20 µM; in the experiment with HLA-A*11:01 [10] it was ≥ 20 µM; with HLA-A*30:01, 0.4 µM.

With RLFPGLAIK, in the experiment with HLA-B*27:05 [11] (source organism: Homo sapiens), the IC50 is 0.146 µM.

Consider RPPMVTSGL, for which the Kd with HLA-A*01:01 [1] (setting [13]), with HLA-A*02:01 (setting [13]), with HLA-A*03:01 (setting [13]), with HLA-A*11:01 [2] (setting [13]), with HLA-A*31:01 (setting [13]) and with HLA-A*69:01 (setting [13]) was ≥ 20 µM throughout. The Kd in the experiment with HLA-B*15:01 (setting [13]), with HLA-B*15:17 (setting [13]), with HLA-B*18:01 (setting [13]), with HLA-B*27:05 [3] (setting [13]), with HLA-B*38:01 and with HLA-B*40:01 (setting [13]) was ≥ 20 µM throughout. Further, the Kd in the experiment with HLA-B*46:01 (setting [13]), with HLA-B*48:01 (setting [13]), with HLA-B*51:01, in the experiment with HLA-B*57:01 (setting [13]), in the experiment with HLA-B*58:01 (setting [13]) and with HLA-B*08:01 (setting [17]) was ≥ 20 µM each time. In addition, the Kd in the experiment with HLA-B*39:01 [6] (setting [17]) was ≥ 20 µM.

Sequence GRATICGKY had an IC50 in the experiment with HLA-B*27:05 [11] (source organism: hepatitis C virus genotype 1a) of 0.122 µM. That is a sub-micromolar value.

As for QSEHSFEEM, the IC50 in the experiment with HLA-A*01:01 [7] (source organism: Zaire ebolavirus) was determined as 39.6 µM.
